Reference: the supplement of paper PMC12783771
± gives the standard deviation of the averaged measurements.

B1: library; numbered along this chain (parent)
chain: MNIQIGELAKRTACPVVTIRFYEQEGLLPPPGRSRGNFRLYGEEHVERLQFIRHCRSLDMPLSDVRTLLSYRKRPDQDCGEVNMLLDEHIRQVESRIGALLELKHHLVELREACSGARPAQSCGILQGLSDCVCDTRGTTAHPSD

Assays:
[1] = variants of: B1; assay: sfGFP reporter fluorescence (15 h) (µM FITC); higher = higher leak; conditions: library round: Round 0; ligand: none
Method in brief: (§1)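 Linear PbrR templates were made by PCR, normalized to 5 nM with an Echo, and expressed in BL21 Star (DE3) PANOx-SP extract with the pPbrR-sfGFP reporter plasmid and 30 μg/mL GamS. Echo-assembled 1 μL reactions held 1 µM lead chloride, 30 µM zinc acetate or no metal and were incubated 15 hr at 30 °C. Endpoint sfGFP fluorescence was read on a Synergy Neo2 and expressed as µM FITC using standard curves. Up to three biological replicates were run.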

[2] = variants of: B1; assay: sfGFP reporter fluorescence (15 h) (µM FITC); higher = stronger transcriptional activation; conditions: library round: Round 0
Method in brief: as §1

Row | Variant | sfGFP reporter fluorescence [1] | sfGFP reporter fluorescence ([2]; ligand: 1 µM Pb) | sfGFP reporter fluorescence ([2]; ligand: 30 µM Zn)
1 | V65A | 0.0629 ± 0.0013 | 0.0678 ± 0.0052 | 0.153 ± 0.036
2 | R66A | 0.0627 ± 0.0015 | 0.0751 ± 0.0047 | 0.616 ± 0.13
3 | T67A | 0.06047 ± 0.00052 | 0.0709 ± 0.0018 | 0.381 ± 0.063
4 | L68A | 0.0623 ± 0.001 | 0.0619 ± 0.0047 | 0.156 ± 0.0049
5 | L68C | 0.0678 ± 0.0031 | 0.0874 ± 0.0044 | 0.504 ± 0.017
6 | L68D | 0.0619 ± 0.001 | 0.061 ± 0.0013 | 0.0636 ± 0.0023
7 | L68E | 0.0623 ± 0.00052 | 0.05974 ± 0.00052 | 0.0652 ± 0.0015
8 | L68F | 0.07935 ± 0.00078 | 0.166 ± 0.0029 | 1.42 ± 0.11
9 | L68G | 0.06395 ± 0.00026 | 0.05827 ± 0.00052 | 0.0656 ± 0.00052
10 | L68H | 0.0623 ± 0.0026 | 0.0577 ± 0.0013 | 0.0795 ± 0.0015
11 | L68I | 0.0599 ± 0.0013 | 0.059 ± 0.0021 | 0.214 ± 0.047
12 | L68K | 0.0608 ± 0.0021 | 0.0566 ± 0.0013 | 0.0638 ± 0.0036
13 | L68M | 0.0902 ± 0.0021 | 0.2142 ± 0.0013 | 1.42 ± 0.044
14 | L68N | 0.0588 ± 0.0013 | 0.05992 ± 0.00026 | 0.0599 ± 0.0013
15 | L68P | 0.0632 ± 0.0029 | 0.0583 ± 0.0015 | 0.0652 ± 0.0026
16 | L68Q | 0.0603 ± 0.00078 | 0.05736 ± 0.00026 | 0.0629 ± 0.0018
17 | L68R | 0.06175 ± 0.00026 | 0.0579 ± 0.001 | 0.0596 ± 0.0029
18 | L68S | 0.061 ± 0.0023 | 0.05882 ± 0.00026 | 0.0636 ± 0.0039
19 | L68T | 0.0612 ± 0.0015 | 0.0605 ± 0.001 | 0.0717 ± 0.0013
20 | L68V | 0.0603 ± 0.0018 | 0.0632 ± 0.0013 | 0.384 ± 0.035
21 | L68W | 0.0627 ± 0.0026 | 0.06157 ± 0.00052 | 0.111 ± 0.0018
22 | L68Y | 0.0634 | 0.0773 ± 0.0031 | 0.908 ± 0.05
23 | L69A | 0.0629 ± 0.0018 | 0.0627 ± 0.0021 | 0.2252 ± 0.0013

Row | Variant | sfGFP reporter fluorescence [1] | sfGFP reporter fluorescence ([2]; ligand: 1 µM Pb) | sfGFP reporter fluorescence ([2]; ligand: 30 µM Zn)
24 | S70A | 0.0678 ± 0.0052 | 0.072 ± 0.0054 | 0.281 ± 0.061
25 | Y71A | 0.05974 ± 0.00052 | 0.0575 | 0.22 ± 0.0036
26 | R72A | 0.06175 ± 0.00026 | 0.0687 ± 0.008 | 0.3731 ± 0.0026
27 | K73A | 0.0621 ± 0.0013 | 0.0676 ± 0.007 | 0.42 ± 0.15
28 | R74A | 0.0596 ± 0.0013 | 0.0669 ± 0.0065 | 0.369 ± 0.079
29 | P75A | 0.0618 ± 0.0023 | 0.0711 ± 0.01 | 0.519 ± 0.049
30 | D76A | 0.06157 ± 0.00052 | 0.0614 ± 0.0034 | 0.202 ± 0.013
31 | Q77A | 0.0698 ± 0.0013 | 0.128 ± 0.045 | 1.48 ± 0.31
32 | D78A | 0.0713 ± 0.0065 | 0.0689 ± 0.0021 | 0.1 ± 0.0026
33 | C79A | 0.05827 ± 0.00052 | 0.055 ± 0.0021 | 0.0585 ± 0.00078
34 | C79D | 0.05882 ± 0.00026 | 0.059 ± 0.0021 | 0.0564 ± 0.001
35 | C79E | 0.0588 ± 0.00078 | 0.0596 ± 0.00078 | 0.0548 ± 0.00078
36 | C79F | 0.055 ± 0.0026 | 0.0574 ± 0.0013 | 0.0546 ± 0.0015
37 | C79G | 0.0553 ± 0.0021 | 0.0552 ± 0.0013 | 0.0522 ± 0.0013
38 | C79H | 0.05919 ± 0.00026 | 0.0596 ± 0.00078 | 0.0559 ± 0.00078
39 | C79I | 0.0557 ± 0.0015 | 0.05351 ± 0.00052 | 0.05387 ± 0.00052
40 | C79K | 0.06011 ± 0.00052 | 0.0614 ± 0.00078 | 0.0548 ± 0.00078
41 | C79L | 0.0555 ± 0.0023 | 0.0553 ± 0.0021 | 0.05498 ± 0.00052
42 | C79M | 0.05974 ± 0.00052 | 0.06121 ± 0.00052 | 0.0592 ± 0.0013
43 | C79N | 0.05919 ± 0.00026 | 0.0566 ± 0.0013 | 0.0557
44 | C79P | 0.057 ± 0.00078 | 0.05772 ± 0.00026 | 0.05351 ± 0.00052
45 | C79Q | 0.05901 ± 0.00052 | 0.05937 ± 0.00052 | 0.0566 ± 0.00078
46 | C79R | 0.06011 ± 0.00052 | 0.0629 ± 0.0018 | 0.059 ± 0.001

Row | Variant | sfGFP reporter fluorescence [1] | sfGFP reporter fluorescence ([2]; ligand: 1 µM Pb) | sfGFP reporter fluorescence ([2]; ligand: 30 µM Zn)
47 | C79S | 0.0592 ± 0.0018 | 0.059 ± 0.001 | 0.055
48 | C79T | 0.0575 ± 0.0031 | 0.0592 ± 0.0018 | 0.0555 ± 0.0018
49 | C79V | 0.0572 ± 0.0015 | 0.0586 | 0.05552 ± 0.00026
50 | C79W | 0.0583 ± 0.0021 | 0.0588 ± 0.0013 | 0.0548 ± 0.0034
51 | C79Y | 0.0597 ± 0.0031 | 0.0585 ± 0.00078 | 0.0564 ± 0.001
52 | G80A | 0.0577 ± 0.0029 | 0.0649 ± 0.0073 | 0.526 ± 0.039
53 | E81A | 0.0612 ± 0.001 | 0.0792 ± 0.0047 | 0.655 ± 0.13
54 | V82A | 0.06047 ± 0.00052 | 0.057 ± 0.0013 | 0.0786 ± 0.0039
55 | V82C | 0.05956 ± 0.00026 | 0.0588 ± 0.00078 | 0.0898 ± 0.0042
56 | V82D | 0.057 ± 0.0044 | 0.0597 | 0.055
57 | V82E | 0.0568 ± 0.0026 | 0.0586 ± 0.0015 | 0.0541 ± 0.0029
58 | V82F | 0.0572 | 0.0572 ± 0.0015 | 0.053 ± 0.0023
59 | V82G | 0.0555 ± 0.0023 | 0.0564 ± 0.001 | 0.0548 ± 0.0018
60 | V82H | 0.0594 ± 0.0015 | 0.05974 ± 0.00052 | 0.0586 ± 0.001
61 | V82I | 0.0572 ± 0.0015 | 0.0658 ± 0.0023 | 0.676 ± 0.0088
62 | V82K | 0.0601 ± 0.0021 | 0.0566 ± 0.0039 | 0.0563 ± 0.0039
63 | V82L | 0.0574 ± 0.0034 | 0.0583 ± 0.001 | 0.0724 ± 0.0044
64 | V82M | 0.0594 | 0.0586 | 0.06212 ± 0.00026
65 | V82N | 0.0597 ± 0.001 | 0.0597 ± 0.0015 | 0.05644 ± 0.00052
66 | V82P | 0.057 ± 0.00078 | 0.05754 ± 0.00052 | 0.0577 ± 0.0013
67 | V82Q | 0.0579 ± 0.0021 | 0.05699 ± 0.00026 | 0.0552 ± 0.0013
68 | V82R | 0.0605 ± 0.0015 | 0.05937 ± 0.00052 | 0.0568 ± 0.001
69 | V82S | 0.0592 ± 0.0023 | 0.057 ± 0.0018 | 0.05552 ± 0.00026

Row | Variant | sfGFP reporter fluorescence [1] | sfGFP reporter fluorescence ([2]; ligand: 1 µM Pb) | sfGFP reporter fluorescence ([2]; ligand: 30 µM Zn)
70 | V82T | 0.0588 ± 0.0013 | 0.059 ± 0.0021 | 0.0583 ± 0.0057
71 | V82W | 0.0592 ± 0.0013 | 0.05827 ± 0.00052 | 0.0555 ± 0.00078
72 | V82Y | 0.0588 ± 0.0034 | 0.05864 ± 0.00052 | 0.0544 ± 0.0013
73 | N83A | 0.061 ± 0.0013 | 0.0867 ± 0.0065 | 0.1411 ± 0.001
74 | N83C | 0.0601 ± 0.0021 | 0.114 ± 0.016 | 0.0649 ± 0.0015
75 | N83D | 0.0614 ± 0.0013 | 0.0607 ± 0.0013 | 1.003 ± 0.0065
76 | N83E | 0.0612 ± 0.001 | 0.0612 ± 0.0015 | 0.141 ± 0.0023
77 | N83F | 0.0588 ± 0.00078 | 0.07275 ± 0.00026 | 0.05882 ± 0.00026
78 | N83G | 0.0559 ± 0.00078 | 0.0748 ± 0.001 | 0.692 ± 0.13
79 | N83H | 2.73 ± 0.37 | 2.63 ± 0.52 | 3.526 ± 0.0086
80 | N83I | 0.0561 ± 0.0015 | 0.0718 ± 0.001 | 0.055 ± 0.001
81 | N83K | 0.0603 ± 0.0034 | 0.0663 ± 0.0015 | 0.07532 ± 0.00026
82 | N83L | 0.0585 ± 0.0018 | 0.07 ± 0.0088 | 0.0575 ± 0.0031
83 | N83M | 0.06102 ± 0.00026 | 0.0768 ± 0.0023 | 0.06194 ± 0.00052
84 | N83P | 0.05772 ± 0.00026 | 0.0579 ± 0.001 | 0.0552 ± 0.0023
85 | N83Q | 0.06487 ± 0.00052 | 0.0693 | 1.55 ± 0.4
86 | N83R | 0.0625 ± 0.00078 | 0.0775 ± 0.0065 | 0.0883 ± 0.0021
87 | N83S | 0.0605 ± 0.0026 | 0.0775 ± 0.00078 | 0.333 ± 0.016
88 | N83T | 0.0607 ± 0.00078 | 0.0759 ± 0.0015 | 0.226 ± 0.047
89 | N83V | 0.0577 ± 0.0034 | 0.07623 ± 0.00052 | 0.0588 ± 0.0013
